The text below walks through data of patent US20250109215A1 (Xencor, published 2025).

The target of one experiment is CD123 on KG-1a cells (human, UniProt P26951 19-378). In words: cell-based or functional assay.
Experiment [1] addresses T1, human CD123 (human, UniProt P26951 19-305, limits assumed).
T1 construct: Construct on the chip is not described; also called CD123 chip
T1 sequence (looked up): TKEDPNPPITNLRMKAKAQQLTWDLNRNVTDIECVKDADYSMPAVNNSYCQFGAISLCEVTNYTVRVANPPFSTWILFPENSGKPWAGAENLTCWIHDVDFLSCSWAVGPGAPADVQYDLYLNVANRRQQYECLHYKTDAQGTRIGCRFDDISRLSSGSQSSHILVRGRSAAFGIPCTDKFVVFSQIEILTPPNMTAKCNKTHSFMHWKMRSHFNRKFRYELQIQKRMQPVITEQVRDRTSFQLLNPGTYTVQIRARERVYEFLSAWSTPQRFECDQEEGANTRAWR
The experiment can be described thus: off-rate screen of Fab-His on a Biacore CD123 chip (Example 3), relative to 7G3 H1L1 Fab. (In general: Surface plasmon resonance follows binding to a sensor surface in real time, without labels.)

Experiment [2] concerns the target T1, human CD123. The experiment can be described thus: Biacore, Fab-His on CD123 (Example 3; the sheet names no assay).
Experiment [3] addresses T1, human CD123. In words: SPR sensorgrams of the Fab on CD123 (highest trace about 153 RU); the value is printed over the panel without a name and equals the rounded KD of Figure 127.
The target of experiment [4] is T2, CD3 (Homo sapiens (Human), UniProt P07766 23-126; P04234 22-105).
T2 construct: not shown: The Fc carrier of the Sino Biological CD3 delta-epsilon-Fc heterodimer; copies: 1 + 1
T2 sequence (P07766 23-126 limits assumed, chain 1 of 2): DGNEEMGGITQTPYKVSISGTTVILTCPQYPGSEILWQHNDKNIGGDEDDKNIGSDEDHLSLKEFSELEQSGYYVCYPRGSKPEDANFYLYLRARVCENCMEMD
T2 sequence (P04234 22-105 limits assumed, chain 2 of 2): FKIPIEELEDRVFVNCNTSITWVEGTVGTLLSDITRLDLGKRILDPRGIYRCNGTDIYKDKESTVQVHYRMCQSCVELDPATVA
The experiment can be described thus: Biacore.

Experiment [5] addresses T2, CD3. In words: Biacore; column head 'KD (nM)*', anti-CD3 scFv-Fc H1.31_L1.47.
Experiment [6] addresses T2, CD3. In words: Biacore; column head 'KD (nM)*', anti-CD3 scFv-Fc H1.30_L1.47.
The target of experiment [7] is T1, human CD123. The experiment can be described thus: SPR sensorgrams on CD123 (highest trace about 160 RU); the value is printed over the panel without a name and equals the rounded KD of Figure 127.
The next experiment deals with T3, human CD3 (human, UniProt P07766 23-126; P04234 22-105).
T3 construct: The legend says only human CD3
T3 sequence (P07766 23-126, chain 1 of 2): as the sequence (P07766 23-126 limits assumed, chain 1 of 2) above
T3 sequence (P04234 22-105, chain 2 of 2): as the sequence (P04234 22-105 limits assumed, chain 2 of 2) above
In words: method not stated in the legend of FIG. 142.

In a further experiment the target is T4, cyno CD3 (cynomolgus monkey, UniProt Q95LI5 22-117; Q95LI8 22-105).
T4 construct: The legend says only cyno CD3; also called cynomolgus monkey CD3
T4 sequence (Q95LI5 22-117, form in doubt, chain 1 of 2): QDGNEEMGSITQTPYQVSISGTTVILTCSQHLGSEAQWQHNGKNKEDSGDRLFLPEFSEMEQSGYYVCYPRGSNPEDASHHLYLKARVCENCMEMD
T4 sequence (Q95LI8 22-105, form in doubt, chain 2 of 2): as the sequence (P04234 22-105 limits assumed, chain 2 of 2) above, with I5V, N15K, I20V, S32T, D33N, I34N, T64A, S74N, V83L counted along it
In words: method not stated in the legend of FIG. 143.

Numbering of substitutions follows the chain as printed.

B1: 13928B (bispecific antibody)
Heavy Chain 1 (Anti-CD123 Fab-Fc (7G3_H0)): EVQLQQSGPELVKPGASVKMSCKASGYTFTDYYMKWVKQSHGKSLEWIGDIIPSNGATFYNQKFKGKATLTVDRSSSTAYMHLNSLTSEDSAVYYCTRSHLLRASWFAYWGQGTLVTVSAASTKGPSVFPLAPSSKSTSGGTAALGCLVKDYFPEPVTVSWNSGALTSGVHTFPAVLQSSGLYSLSSVVTVPSSSLGTQTYICNVNHKPSDTKVDKKVEPKSCDKTHTCPPCPAPPVAGPSVFLFPPKPKDTLMISRTPEVTCVVVDVKHEDPEVKFNWYVDGVEVHNAKTKPREEEYNSTYRVVSVLTVLHQDWLNGKEYKCKVSNKALPAPIEKTISKAKGQPREPQVYTLPPSREEMTKNQVSLTCDVSGFYPSDIAVEWESDGQPENNYKTTPPVLDSDGSFFLYSKLTVDKSRWEQGDVFSCSVMHEALHNHYTQKSLSLSPGK
Heavy Chain 2 (Anti-CD3 scFv-Fc (aCD3_H1.30_L1.47)): not shown
Light Chain (Anti-CD123 LC (7G3_L0)): DFVMTQSPSSLTVTAGEKVTMSCKSSQSLLNSGNQKNYLTWYLQKPGQPPKLLIYWASTRESGVPDRFTGSGSGTDFTLTISSVQAEDLAVYYCQNDYSYPYTFGGGTKLEIKRTVAAPSVFIFPPSDEQLKSGTASVVCLLNNFYPREAKVQWKVDNALQSGNSQESVTEQDSKDSTYSLSSTLTLSKADYEKHKVYACEVTHQGLSSPVTKSFNRGEC
As for B1, in the experiment with CD123 on KG-1a cells, the “RTCC % of KG-1a cells: EC50 (read off the curve)” value was about 0.8 ng/mL.

B2: 13760 7G3_H0L0_Fab_His (Fab, V domains shown)
VH: EVQLQQSGPELVKPGASVKMSCKASGYTFTDYYMKWVKQSHGKSLEWIGDIIPSNGATFYNQKFKGKATLTVDRSSSTAYMHLNSLTSEDSAVYYCTRSHLLRASWFAYWGQGTLVTVSA
VL: DFVMTQSPSSLTVTAGEKVTMSCKSSQSLLNSGNQKNYLTWYLQKPGQPPKLLIYWASTRESGVPDRFTGSGSGTDFTLTISSVQAEDLAVYYCQNDYSYPYTFGGGTKLEIKR
notes: Fab of the murine 7G3 variable regions; also called XENP13760
Turning to B2, the “Fold improvement in off-rate vs. H1L1” value in the experiment with human CD123 [1] amounted to 7.21 fold. In the experiment with human CD123 [2], this molecule registered a Ka of 6.25e+09 M⁻¹, a Kd of 0.16 nM, a koff of 0.000108 s⁻¹ and a kon of 674000 M⁻¹ s⁻¹. Besides, the Kd in the experiment with human CD123 [3] stood at 0.2 nM.

B3: XENP14701 (bispecific antibody)
heavy: EVQLVESGGGLVQPGGSLRLSCAASGFDFSRSWMNWVRQAPGKGLEWVSEINPDSSTINYATSVKGRFTISRDNSKNTLYLQMNSLRAEDTAVYYCARYGNWFPYWGQGTLVTVSSASTKGPSVFPLAPSSKSTSGGTAALGCLVKDYFPEPVTVSWNSGALTSGVHTFPAVLQSSGLYSLSSVVTVPSSSLGTQTYICNVNHKPSDTKVDKKVEPKSCDKTHTCPPCPAPPVAGPSVFLFPPKPKDTLMISRTPEVTCVVVDVKHEDPEVKFNWYVDGVEVHNAKTKPREEEYNSTYRVVSVLTVLHQDWLNGKEYKCKVSNKALPAPIEKTISKAKGQPREPQVYTLPPSREEMTKNQVSLTCDVSGFYPSDIAVEWESDGQPENNYKTTPPVLDSDGSFFLYSKLTVDKSRWEQGDVFSCSVMHEALHNHYTQKSLSLSPGK
scFv-Fc: not shown
light: DIVMTQSPSSLSASVGDRVTITCRASQNVDTNVAWYQQKPGQSPKALIYSASYRYSGVPDRFTGSGSGTDFTLTISSLQPEDFATYFCQQYDSYPLTFGGGTKLEIKRTVAAPSVFIFPPSDEQLKSGTASVVCLLNNFYPREAKVQWKVDNALQSGNSQESVTEQDSKDSTYSLSSTLTLSKADYEKHKVYACEVTHQGLSSPVTKSFNRGEC
notes: anti-CD38 x anti-CD3; copies: 1 + 1 + 1
Turning to B3, the “Fold Decrease in CD3 binding from H1.30_L1.47” value (shortened to “Fold Decrease in CD3 binding”) with CD3 [4] was 330 fold. This molecule displayed a Kd in the experiment with CD3 [5] of 1640 nM.

B4: XENP14703 (bispecific antibody)
heavy: B3 heavy
scFv-Fc: not shown
light: B3 light with Y55K
notes: anti-CD38 x anti-CD3
Consider B4, for which the “Fold Decrease in CD3 binding” value with CD3 [4] stood at 330 fold. In addition, in the experiment with CD3 [5], the Kd was determined as 1640 nM.

B5: XENP13243 (bispecific antibody)
heavy: B3 heavy
scFv-Fc: not shown
light: B3 light
notes: as for B3
Molecule B5 displayed a Kd with CD3 [6] of 4.91 nM. For the same molecule, the “Fold Decrease in CD3 binding” value in the experiment with CD3 [4] is 1 fold.

B6: XmAb14702 (bispecific antibody)
heavy: B3 heavy with D28T, R31Y, D54Q
scFv-Fc: not shown
light: B3 light with N32W
For the molecule B6, in the experiment with CD3 [4], the “Fold Decrease in CD3 binding” value turned out to be 330 fold. In the experiment with CD3 [5], this molecule showed a Kd of 1640 nM.

B7: 13967 7G3_H1.109_L1.57_Fab_His (Fab, V domains shown)
VH: QVQLQQSGAEVKKPGASVKVSCKASGYTFTDYYMKWVKQSHGKSLEWMGDIIPSNGATFYNQKFKGKATLTVDRSTSTAYMELSSLRSEDTAVYYCARSHLLRASWFAYWGQGTLVTVSS
VL: DFVMTQSPDSLAVSLGERATINCKSSQSLLNTGNQKNYLTWYQQKPGQPPKLLIYWASTRESGVPDRFTGSGSGTDFTLTISSLQAEDVAVYYCQNDYSYPYTFGGGTKLEIKR
notes: also called XENP13967
B7 displayed a Kd with human CD123 [7] of 0.1 nM. In the experiment with human CD123 [2], this molecule had a Ka of 1.05e+10 M⁻¹, a Kd of 0.0954 nM, a koff of 6.25e-05 s⁻¹ and a kon of 655000 M⁻¹ s⁻¹.

B8: XENP14045 (anti-CD123 x anti-CD3) bispecific (bispecific antibody)
heavy: QVQLQQSGAEVKKPGASVKVSCKASGYTFTDYYMKWVKQSHGKSLEWMGDIIPSNGATFYNQKFKGKATLTVDRSTSTAYMELSSLRSEDTAVYYCARSHLLRASWFAYWGQGTLVTVSSASTKGPSVFPLAPSSKSTSGGTAALGCLVKDYFPEPVTVSWNSGALTSGVHTFPAVLQSSGLYSLSSVVTVPSSSLGTQTYICNVNHKPSDTKVDKKVEPKSCDKTHTCPPCPAPPVAGPSVFLFPPKPKDTLMISRTPEVTCVVVDVKHEDPEVKFNWYVDGVEVHNAKTKPREEEYNSTYRVVSVLTVLHQDWLNGKEYKCKVSNKALPAPIEKTISKAKGQPREPQVYTLPPSREEMTKNQVSLTCDVSGFYPSDIAVEWESDGQPENNYKTTPPVLDSDGSFFLYSKLTVDKSRWEQGDVFSCSVMHEALHNHYTQKSLSLSPGK
scFv-Fc: not shown
light: not shown
notes: XENP13967 has the same CD123 side with a different CD3 scFv
B8: the Kd with human CD3 was 8.1 nM; in the experiment with cyno CD3, 5.7 nM.

Broadly, the Kd is the constant that tells how readily two partners part at equilibrium. A high value points to a looser complex. By koff is commonly meant the rate constant with which the complex falls apart. Low values mean a long-lived complex, high ones a short-lived complex. What is called kon is a measure of how fast the partners come together. Lower therefore signals slow association.
